Laboratory results: article PMC10188367, “Improved cytosine base editors generated from TadA variants” (Nature Biotechnology, 2023)

Experiments:
[1] = molecular target: the molecule itself; experiment: crystal structure; TadA*8.20 (0.15 mM) with 0.22 mM 13-nt ssDNA containing d8Az; PEG 3,350, ammonium acetate, Tris pH 8.5, 20 °C
[2] = molecular target: the molecule itself; experiment: crystal structure; TADAC-1.17 (0.15 mM) with 0.22 mM 13-nt ssDNA containing d8Az; PEG 3,350, Tacsimate pH 6, 20 °C
[3] = molecular target: the molecule itself; experiment: crystal structure; TADAC-1.19 (0.3 mM) without ssDNA; PEG 3,350, ammonium citrate tribasic pH 7.0, 20 °C
[4] = molecular target: the molecule itself; experiment: crystal structure; TADAC-1.14 (0.18 mM) without ssDNA; ammonium sulfate, HEPES pH 7.5, 20 °C

B1: TadA*8.20 (enzyme, E. coli)
chain: MSEVEFSHEYWMRHALTLAKRARDEREVPVGAVLVLNNRVIGEGWNRAIGLHDPTAHAEIMALRQGGLVMQNYRLYDATLYSTFEPCVMCAGAMIHSRIGRVVFGVRNAKTGAAGSLMDVLHHPGMNHRVEITEGILADECAALLCRFFRMPRRVFNAQKKAQSSTD
notes: E. coli tRNA adenosine deaminase TadA, laboratory-evolved variant TadA*8.20 of ABE8.20-m; 167 residues; Crystallised with a 13-nt ssDNA containing 2-deoxy-8-azanebularine; zinc enzyme; also called deaminase of ABE8.20-m; ABE8.20 TadA*; source: E. coli BL21 Star (DE3), purified (Ni-NTA, Ulp1 cleavage, reverse Ni-NTA, heparin, SEC); not shown: His, N-terminal, cleaved; SUMO, N-terminal, cleaved
In the case of B1, the “stoichiometry N” value [1] is reported as 2.

B2: TADAC-1.17 (enzyme, E. coli)
chain: MSEVEFSHEYWMRHALALAKRARDEREVPVGAVLVLNNRVIGEGWNRGIGLHDPTAHAEIMALRQGGLVMQNYRLYDATLYTTFEPCVMCAGAMIHSRIGRVVFGVRNAKTGAAGSLMDVLHHPGMNHRVEITEGILADECEALLCRFFRMPRRVFNAQKKAQSSTD
notes: E. coli TadA variant: TadA*8.20 with T17A, A48G, S82T and A142E relative to TadA*8.20; 167 residues; the rows below are written against wild-type TadA; Crystallised with a 13-nt ssDNA containing 2-deoxy-8-azanebularine; also called deaminase of CABE-T1.17; source: E. coli BL21, purified as described for TadA*8.20; not shown: His, N-terminal, cleaved; SUMO, N-terminal, cleaved
In the case of B2, the “stoichiometry N” value [2] is reported as 2.

B3: TADAC-1.19 (enzyme, E. coli)
chain: MSEVEFSHEYWMRHALTLAKRARDERGVPVGAVLVLNNRVIGEGWNRANGLHDPTAHAEIMALRQGGLVMQNYRLYDATLYSTFEPCVMCAGAMIHSRIGRVVFGVRNAKTGAAGSLMDVLHHPGMNHRVEITEGILADECAALLCRFFRMPRRVFNAQKKAQSSTD
notes: E. coli TadA variant: TadA*8.20 with E27G and I49N relative to TadA*8.20; 167 residues; the rows below are written against wild-type TadA; Crystallised without ssDNA; also called TADAC-T1.19; source: E. coli BL21, purified as described for TadA*8.20; not shown: His, N-terminal, cleaved; SUMO, N-terminal, cleaved
B3 was tested, and the “stoichiometry N” value [3] was 2.

B4: TADAC-1.14 (enzyme, E. coli)
chain: MHEVEFSHEYWMRHALTLAKRARDEREVPVGAVLVLNNRVIGEGWNRAKGLHDPTAHAEIMALRQGGLVMQNYRLIDATLYSTFEPCVMCAGAMIHSRIGRVVFGVRNAKTHAAGSLMDVLHHPGMNHRVEITEGILADECAALLCRFFRMPRRVFNAQKKAQSSTD
notes: E. coli TadA variant: TadA*8.20 with S2H, I49K, Y76I and G112H relative to TadA*8.20; Y76I brings position 76 back to the wild-type residue; 167 residues; the rows below are written against wild-type TadA; Crystallised without ssDNA; also called deaminase of CABE-T1.14; source: E. coli BL21 Star (DE3), purified (Ni-NTA, heparin, SEC; Ulp1 tag cleavage and reverse Ni-NTA omitted); not shown: …
With B4 the “stoichiometry N” value [4] was 2.
